Experimental data from the supplement of paper PMC10065799, “High-throughput profiling of sequence recognition by tyrosine kinases and SH2 domains using bacterial peptide display” (eLife, 2023).

Legend:
SHP2-C SH2 = assay: SH2 binding enrichment of the phosphorylated peptide, bacterial display (enrichment ratio); higher = better substrate or ligand; peptides without Tyr show the background
c-Src SH2 = assay: as above
Grb2 SH2 = Grb2 SH2 (UniProt P62993); assay: as above
AncSZ = assay: phosphorylation enrichment, bacterial display (enrichment ratio); higher = better substrate or ligand; peptides without Tyr show the background
EPHB2 = EPHB2 (UniProt P29323); assay: as above
EPHB1 = EPHB1 (UniProt P54762); assay: as above
FGFR3 = FGFR3 (UniProt P22607); assay: as above
FGFR3, sequence (P22607 whole entry, looked up): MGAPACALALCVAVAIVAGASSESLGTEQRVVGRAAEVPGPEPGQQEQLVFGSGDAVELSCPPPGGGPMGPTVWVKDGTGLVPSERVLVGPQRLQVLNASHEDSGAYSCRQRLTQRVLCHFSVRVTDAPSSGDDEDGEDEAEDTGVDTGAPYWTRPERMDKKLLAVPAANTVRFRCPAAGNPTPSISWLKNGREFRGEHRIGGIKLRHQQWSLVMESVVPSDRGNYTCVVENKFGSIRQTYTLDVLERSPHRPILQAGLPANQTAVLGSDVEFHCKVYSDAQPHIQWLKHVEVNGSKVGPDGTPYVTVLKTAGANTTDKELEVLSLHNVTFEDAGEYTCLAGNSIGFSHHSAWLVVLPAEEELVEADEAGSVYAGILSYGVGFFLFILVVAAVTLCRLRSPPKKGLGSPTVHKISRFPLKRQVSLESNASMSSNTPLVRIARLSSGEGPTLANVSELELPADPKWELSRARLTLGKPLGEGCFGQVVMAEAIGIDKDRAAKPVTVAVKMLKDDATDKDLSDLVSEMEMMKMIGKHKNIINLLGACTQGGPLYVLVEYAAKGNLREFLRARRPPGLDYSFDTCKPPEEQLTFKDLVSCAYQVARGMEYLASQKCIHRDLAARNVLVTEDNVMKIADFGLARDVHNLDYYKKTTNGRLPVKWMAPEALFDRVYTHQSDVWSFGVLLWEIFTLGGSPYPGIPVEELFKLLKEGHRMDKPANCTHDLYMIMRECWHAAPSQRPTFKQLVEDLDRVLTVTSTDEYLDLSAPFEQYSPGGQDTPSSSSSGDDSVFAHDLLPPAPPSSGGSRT

Jak2 = Jak2 (UniProt O60674); assay: as above
Jak2, sequence (O60674 whole entry, looked up): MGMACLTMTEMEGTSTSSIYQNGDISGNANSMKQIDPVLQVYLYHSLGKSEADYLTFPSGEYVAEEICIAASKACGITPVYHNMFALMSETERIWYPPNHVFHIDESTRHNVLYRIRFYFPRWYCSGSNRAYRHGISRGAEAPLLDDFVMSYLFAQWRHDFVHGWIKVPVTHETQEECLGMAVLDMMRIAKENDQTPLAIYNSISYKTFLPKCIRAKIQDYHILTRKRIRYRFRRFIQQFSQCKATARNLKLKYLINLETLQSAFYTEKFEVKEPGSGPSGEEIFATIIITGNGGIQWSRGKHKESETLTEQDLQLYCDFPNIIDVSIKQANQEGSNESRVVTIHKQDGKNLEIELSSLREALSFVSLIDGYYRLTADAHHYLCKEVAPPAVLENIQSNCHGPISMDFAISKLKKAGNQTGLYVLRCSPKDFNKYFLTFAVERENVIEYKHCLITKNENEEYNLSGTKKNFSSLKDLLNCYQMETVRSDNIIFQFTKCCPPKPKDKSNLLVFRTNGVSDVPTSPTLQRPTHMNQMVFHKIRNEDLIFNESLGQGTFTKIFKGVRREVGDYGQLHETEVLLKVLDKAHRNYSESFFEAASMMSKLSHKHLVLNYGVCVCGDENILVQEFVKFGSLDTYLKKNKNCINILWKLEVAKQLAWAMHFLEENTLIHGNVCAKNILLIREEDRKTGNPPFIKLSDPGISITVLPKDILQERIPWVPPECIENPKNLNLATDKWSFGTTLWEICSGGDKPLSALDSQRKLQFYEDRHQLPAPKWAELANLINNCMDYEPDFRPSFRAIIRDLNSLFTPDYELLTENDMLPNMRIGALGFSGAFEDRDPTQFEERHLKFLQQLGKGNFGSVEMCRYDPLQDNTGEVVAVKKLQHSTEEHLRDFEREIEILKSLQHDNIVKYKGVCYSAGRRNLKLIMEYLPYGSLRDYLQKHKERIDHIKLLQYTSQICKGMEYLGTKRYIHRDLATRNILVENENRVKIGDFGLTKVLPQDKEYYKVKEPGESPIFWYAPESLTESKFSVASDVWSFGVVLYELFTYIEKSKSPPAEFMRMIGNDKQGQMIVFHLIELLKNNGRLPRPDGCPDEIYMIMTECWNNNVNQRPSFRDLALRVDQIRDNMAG

MERTK = MERTK (UniProt Q12866); assay: as above
MERTK, sequence (Q12866 whole entry, looked up): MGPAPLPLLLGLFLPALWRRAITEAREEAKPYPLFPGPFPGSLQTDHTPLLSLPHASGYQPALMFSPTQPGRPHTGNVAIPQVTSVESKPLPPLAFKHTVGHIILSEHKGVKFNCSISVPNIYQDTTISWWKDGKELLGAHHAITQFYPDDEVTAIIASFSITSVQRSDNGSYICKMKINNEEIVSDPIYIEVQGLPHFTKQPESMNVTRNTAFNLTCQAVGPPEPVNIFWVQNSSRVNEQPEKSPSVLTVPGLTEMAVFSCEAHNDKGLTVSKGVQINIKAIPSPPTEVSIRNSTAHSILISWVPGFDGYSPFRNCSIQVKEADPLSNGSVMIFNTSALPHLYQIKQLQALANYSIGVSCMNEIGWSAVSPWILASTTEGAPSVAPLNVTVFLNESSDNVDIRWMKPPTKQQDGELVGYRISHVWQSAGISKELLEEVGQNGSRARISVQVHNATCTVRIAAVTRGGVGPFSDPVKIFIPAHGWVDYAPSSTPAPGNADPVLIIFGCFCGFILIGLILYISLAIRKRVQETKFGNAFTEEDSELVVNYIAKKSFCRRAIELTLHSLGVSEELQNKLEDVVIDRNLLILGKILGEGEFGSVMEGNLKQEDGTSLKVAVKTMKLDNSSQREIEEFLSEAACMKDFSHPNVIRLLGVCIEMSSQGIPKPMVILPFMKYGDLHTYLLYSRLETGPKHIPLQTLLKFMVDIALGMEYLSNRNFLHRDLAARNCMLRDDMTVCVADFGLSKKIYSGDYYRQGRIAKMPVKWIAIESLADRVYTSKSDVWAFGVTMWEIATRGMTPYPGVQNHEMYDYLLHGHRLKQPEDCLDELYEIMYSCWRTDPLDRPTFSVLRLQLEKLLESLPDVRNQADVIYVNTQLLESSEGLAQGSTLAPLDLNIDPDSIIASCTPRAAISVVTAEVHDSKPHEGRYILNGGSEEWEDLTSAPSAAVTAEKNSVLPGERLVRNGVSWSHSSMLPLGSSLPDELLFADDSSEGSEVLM

c-Abl (mouse) = assay: as above
Fes = Fes (UniProt P07332); assay: as above
FGFR1 = FGFR1 (UniProt P11362); assay: as above
FGFR1, sequence (P11362 whole entry, looked up): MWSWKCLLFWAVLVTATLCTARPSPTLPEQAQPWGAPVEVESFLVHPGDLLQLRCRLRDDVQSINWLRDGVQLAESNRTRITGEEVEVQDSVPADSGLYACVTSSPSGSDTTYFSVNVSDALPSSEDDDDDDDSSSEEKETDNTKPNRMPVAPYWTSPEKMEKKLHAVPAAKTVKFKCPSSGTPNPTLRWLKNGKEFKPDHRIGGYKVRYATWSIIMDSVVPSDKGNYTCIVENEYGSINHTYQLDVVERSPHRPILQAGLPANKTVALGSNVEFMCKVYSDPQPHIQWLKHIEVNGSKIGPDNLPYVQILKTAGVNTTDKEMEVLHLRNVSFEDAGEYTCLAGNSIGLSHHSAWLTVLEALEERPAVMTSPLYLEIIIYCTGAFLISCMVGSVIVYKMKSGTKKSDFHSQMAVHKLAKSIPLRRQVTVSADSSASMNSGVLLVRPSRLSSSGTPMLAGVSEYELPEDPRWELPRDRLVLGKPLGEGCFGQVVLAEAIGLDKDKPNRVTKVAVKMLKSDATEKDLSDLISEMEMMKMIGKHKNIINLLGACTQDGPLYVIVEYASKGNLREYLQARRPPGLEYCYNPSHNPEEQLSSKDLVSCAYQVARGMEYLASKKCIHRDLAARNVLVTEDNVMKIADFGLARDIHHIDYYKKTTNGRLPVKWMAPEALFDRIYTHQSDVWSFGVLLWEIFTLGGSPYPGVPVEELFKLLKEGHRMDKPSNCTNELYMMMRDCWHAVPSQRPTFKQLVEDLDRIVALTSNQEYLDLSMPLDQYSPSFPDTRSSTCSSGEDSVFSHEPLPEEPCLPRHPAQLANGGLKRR

Fyn = Fyn (UniProt P06241); assay: as above
Fyn, sequence (P06241 whole entry, looked up): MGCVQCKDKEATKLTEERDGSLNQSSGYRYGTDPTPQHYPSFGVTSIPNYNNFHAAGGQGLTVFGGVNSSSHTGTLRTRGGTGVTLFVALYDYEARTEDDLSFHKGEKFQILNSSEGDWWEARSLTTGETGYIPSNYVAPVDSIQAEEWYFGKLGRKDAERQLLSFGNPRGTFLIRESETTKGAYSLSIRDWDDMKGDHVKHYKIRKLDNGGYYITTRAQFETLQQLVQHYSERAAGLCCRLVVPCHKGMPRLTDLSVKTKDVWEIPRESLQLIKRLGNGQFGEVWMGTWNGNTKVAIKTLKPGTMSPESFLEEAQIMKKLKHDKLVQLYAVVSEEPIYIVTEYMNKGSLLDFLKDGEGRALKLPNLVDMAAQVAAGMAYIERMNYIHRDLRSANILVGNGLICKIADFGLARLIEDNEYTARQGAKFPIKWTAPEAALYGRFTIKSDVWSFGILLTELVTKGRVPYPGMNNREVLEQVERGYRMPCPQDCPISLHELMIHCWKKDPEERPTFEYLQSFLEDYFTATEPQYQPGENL

c-Src = assay: as above
Hck = Hck (UniProt P08631); assay: as above
Hck, sequence (P08631 whole entry, looked up): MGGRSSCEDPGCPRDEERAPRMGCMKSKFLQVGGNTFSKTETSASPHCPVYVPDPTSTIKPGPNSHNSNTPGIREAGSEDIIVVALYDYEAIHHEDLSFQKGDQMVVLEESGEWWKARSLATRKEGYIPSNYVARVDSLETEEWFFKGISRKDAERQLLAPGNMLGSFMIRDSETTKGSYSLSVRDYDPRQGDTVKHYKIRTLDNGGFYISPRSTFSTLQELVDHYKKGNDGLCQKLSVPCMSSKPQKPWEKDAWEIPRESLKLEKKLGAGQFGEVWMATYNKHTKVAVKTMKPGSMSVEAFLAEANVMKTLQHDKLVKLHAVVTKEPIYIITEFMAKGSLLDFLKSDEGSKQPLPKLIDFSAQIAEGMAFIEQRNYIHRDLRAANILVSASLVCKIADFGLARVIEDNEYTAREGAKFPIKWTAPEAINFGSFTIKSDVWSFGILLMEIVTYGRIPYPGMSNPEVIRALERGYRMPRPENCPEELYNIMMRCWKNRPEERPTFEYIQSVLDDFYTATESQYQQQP

Fer (mouse) = assay: as above
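Throughout, for SH2 binding enrichment of the phosphorylated peptide, bacterial display: peptide library displayed on the E. coli surface as eCPX fusions, selected cells deep-sequenced, score is each peptide's frequency after selection divided by its frequency in the input.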
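Throughout, for phosphorylation enrichment, bacterial display: 11-residue human phosphosite peptides and single-mutation variants displayed on the E. coli surface, counted by deep sequencing, each peptide's frequency after selection divided by its frequency in the unselected input library; frequency after pTyr selection over input frequency; kinase dosed for 20-30% of maximal phosphorylation in three min.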

Grb2 SH2, sequence (P62993 whole entry, looked up): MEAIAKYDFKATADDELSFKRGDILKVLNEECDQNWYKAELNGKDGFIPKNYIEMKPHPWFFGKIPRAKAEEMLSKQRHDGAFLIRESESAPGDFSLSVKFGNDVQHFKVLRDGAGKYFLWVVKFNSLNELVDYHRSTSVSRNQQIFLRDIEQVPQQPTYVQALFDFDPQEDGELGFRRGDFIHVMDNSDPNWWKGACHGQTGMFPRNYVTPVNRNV

HAVEDYQAIVD [CCT7_Y263_T259A]
SH2 binding enrichment (SHP2-C SH2): 0.768 | SH2 binding enrichment (c-Src SH2): 0.696 | SH2 binding enrichment (Grb2 SH2): 1.09 | phosphorylation enrichment (AncSZ): 1.54 | phosphorylation enrichment (EPHB2): 1.03 | phosphorylation enrichment (EPHB1): 0.73 | phosphorylation enrichment (FGFR3): 1.05 | phosphorylation enrichment (Jak2): 1.25 | phosphorylation enrichment (MERTK): 3.12 | phosphorylation enrichment (c-Abl (mouse)): 1.19 | phosphorylation enrichment (Fes): 1.47 | phosphorylation enrichment (FGFR1): 0.864 | phosphorylation enrichment (Fyn): 0.792 | phosphorylation enrichment (c-Src): 0.942 | phosphorylation enrichment (Hck): 0.714 | phosphorylation enrichment (Fer (mouse)): 0.653

VNCHQYDGLVE [ATP2A2_Y407]
SH2 binding enrichment (SHP2-C SH2): 0.983 | SH2 binding enrichment (c-Src SH2): 12.5 | SH2 binding enrichment (Grb2 SH2): 1.18 | phosphorylation enrichment (AncSZ): 1.06 | phosphorylation enrichment (EPHB2): 0.659 | phosphorylation enrichment (EPHB1): 0.658 | phosphorylation enrichment (FGFR3): 0.818 | phosphorylation enrichment (Jak2): 0.848 | phosphorylation enrichment (MERTK): 0.499 | phosphorylation enrichment (c-Abl (mouse)): 0.672 | phosphorylation enrichment (Fes): 1.2 | phosphorylation enrichment (FGFR1): 0.614 | phosphorylation enrichment (Fyn): 0.626 | phosphorylation enrichment (c-Src): 0.531 | phosphorylation enrichment (Hck): 0.651 | phosphorylation enrichment (Fer (mouse)): 0.598

FSNVLYRPRGP [TMIGD2_Y197_A202P_YF]
SH2 binding enrichment (SHP2-C SH2): 0.794 | SH2 binding enrichment (c-Src SH2): 0.506 | SH2 binding enrichment (Grb2 SH2): 0.693 | phosphorylation enrichment (AncSZ): 0.549 | phosphorylation enrichment (EPHB2): 0.399 | phosphorylation enrichment (EPHB1): 0.429 | phosphorylation enrichment (FGFR3): 0.444 | phosphorylation enrichment (Jak2): 0.959 | phosphorylation enrichment (MERTK): 0.434 | phosphorylation enrichment (c-Abl (mouse)): 0.568 | phosphorylation enrichment (Fes): 0.674 | phosphorylation enrichment (FGFR1): 0.367 | phosphorylation enrichment (Fyn): 0.438 | phosphorylation enrichment (c-Src): 0.463 | phosphorylation enrichment (Hck): 0.479 | phosphorylation enrichment (Fer (mouse)): 0.397

RCKNHYAAFSV [C1QTNF1_Y145_S143N]
SH2 binding enrichment (SHP2-C SH2): 1.7 | SH2 binding enrichment (c-Src SH2): 1.67 | SH2 binding enrichment (Grb2 SH2): 1.98 | phosphorylation enrichment (AncSZ): 0.538 | phosphorylation enrichment (EPHB2): 0.562 | phosphorylation enrichment (EPHB1): 0.286 | phosphorylation enrichment (FGFR3): 0.56 | phosphorylation enrichment (Jak2): 0.63 | phosphorylation enrichment (MERTK): 0.572 | phosphorylation enrichment (c-Abl (mouse)): 0.72 | phosphorylation enrichment (Fes): 0.749 | phosphorylation enrichment (FGFR1): 0.488 | phosphorylation enrichment (Fyn): 0.415 | phosphorylation enrichment (c-Src): 0.633 | phosphorylation enrichment (Hck): 0.615 | phosphorylation enrichment (Fer (mouse)): 0.488

EDGRLYAVKRS [PKMYT1_Y136]
SH2 binding enrichment (SHP2-C SH2): 0.833 | SH2 binding enrichment (c-Src SH2): 0.525 | SH2 binding enrichment (Grb2 SH2): 0.891 | phosphorylation enrichment (AncSZ): 0.753 | phosphorylation enrichment (EPHB2): 0.496 | phosphorylation enrichment (EPHB1): 0.417 | phosphorylation enrichment (FGFR3): 0.633 | phosphorylation enrichment (Jak2): 0.728 | phosphorylation enrichment (MERTK): 0.433 | phosphorylation enrichment (c-Abl (mouse)): 0.692 | phosphorylation enrichment (Fes): 0.856 | phosphorylation enrichment (FGFR1): 0.465 | phosphorylation enrichment (Fyn): 0.486 | phosphorylation enrichment (c-Src): 0.485 | phosphorylation enrichment (Hck): 0.612 | phosphorylation enrichment (Fer (mouse)): 0.444

HRGYLYLAIEY [TEK_Y899]
SH2 binding enrichment (SHP2-C SH2): 1.11 | SH2 binding enrichment (c-Src SH2): 0.695 | SH2 binding enrichment (Grb2 SH2): 1.24 | phosphorylation enrichment (AncSZ): 1.23 | phosphorylation enrichment (EPHB2): 0.485 | phosphorylation enrichment (EPHB1): 0.558 | phosphorylation enrichment (FGFR3): 0.602 | phosphorylation enrichment (Jak2): 1.03 | phosphorylation enrichment (MERTK): 0.486 | phosphorylation enrichment (c-Abl (mouse)): 1.24 | phosphorylation enrichment (Fes): 1.22 | phosphorylation enrichment (FGFR1): 0.521 | phosphorylation enrichment (Fyn): 0.485 | phosphorylation enrichment (c-Src): 0.375 | phosphorylation enrichment (Hck): 0.466 | phosphorylation enrichment (Fer (mouse)): 0.432

LNPLIYTLKNA [OR4C46_Y285]
SH2 binding enrichment (SHP2-C SH2): 0.891 | SH2 binding enrichment (c-Src SH2): 0.42 | SH2 binding enrichment (Grb2 SH2): 0.642 | phosphorylation enrichment (AncSZ): 0.602 | phosphorylation enrichment (EPHB2): 0.603 | phosphorylation enrichment (EPHB1): 0.762 | phosphorylation enrichment (FGFR3): 0.886 | phosphorylation enrichment (Jak2): 0.343 | phosphorylation enrichment (MERTK): 0.463 | phosphorylation enrichment (c-Abl (mouse)): 0.474 | phosphorylation enrichment (Fes): 1.08 | phosphorylation enrichment (FGFR1): 0.73 | phosphorylation enrichment (Fyn): 2.17 | phosphorylation enrichment (c-Src): 3.03 | phosphorylation enrichment (Hck): 2.31 | phosphorylation enrichment (Fer (mouse)): 0.545

GGRKGYGGFSR [RECQL5_Y478_D480G]
SH2 binding enrichment (SHP2-C SH2): 0.571 | SH2 binding enrichment (c-Src SH2): 0.453 | SH2 binding enrichment (Grb2 SH2): 0.736 | phosphorylation enrichment (AncSZ): 0.551 | phosphorylation enrichment (EPHB2): 0.396 | phosphorylation enrichment (EPHB1): 0.393 | phosphorylation enrichment (FGFR3): 0.452 | phosphorylation enrichment (Jak2): 0.51 | phosphorylation enrichment (MERTK): 0.512 | phosphorylation enrichment (c-Abl (mouse)): 0.506 | phosphorylation enrichment (Fes): 0.491 | phosphorylation enrichment (FGFR1): 0.391 | phosphorylation enrichment (Fyn): 0.513 | phosphorylation enrichment (c-Src): 0.487 | phosphorylation enrichment (Hck): 0.42 | phosphorylation enrichment (Fer (mouse)): 0.36

TEGNGYISFNE [LCP1_Y28_D24E]
SH2 binding enrichment (SHP2-C SH2): 0.889 | SH2 binding enrichment (c-Src SH2): 14.1 | SH2 binding enrichment (Grb2 SH2): 0.722 | phosphorylation enrichment (AncSZ): 1.09 | phosphorylation enrichment (EPHB2): 0.595 | phosphorylation enrichment (EPHB1): 0.734 | phosphorylation enrichment (FGFR3): 0.636 | phosphorylation enrichment (Jak2): 0.823 | phosphorylation enrichment (MERTK): 0.499 | phosphorylation enrichment (c-Abl (mouse)): 0.723 | phosphorylation enrichment (Fes): 1.01 | phosphorylation enrichment (FGFR1): 0.468 | phosphorylation enrichment (Fyn): 0.539 | phosphorylation enrichment (c-Src): 0.573 | phosphorylation enrichment (Hck): 0.528 | phosphorylation enrichment (Fer (mouse)): 0.487

CTTIHYNFRCN [TP53_Y234_M237R_YF]
SH2 binding enrichment (SHP2-C SH2): 1.67 | SH2 binding enrichment (c-Src SH2): 1.48 | SH2 binding enrichment (Grb2 SH2): 1.61 | phosphorylation enrichment (AncSZ): 0.763 | phosphorylation enrichment (EPHB2): 0.499 | phosphorylation enrichment (EPHB1): 0.536 | phosphorylation enrichment (FGFR3): 0.637 | phosphorylation enrichment (Jak2): 0.56 | phosphorylation enrichment (MERTK): 0.386 | phosphorylation enrichment (c-Abl (mouse)): 0.584 | phosphorylation enrichment (Fes): 0.804 | phosphorylation enrichment (FGFR1): 0.487 | phosphorylation enrichment (Fyn): 0.471 | phosphorylation enrichment (c-Src): 0.469 | phosphorylation enrichment (Hck): 0.439 | phosphorylation enrichment (Fer (mouse)): 0.462

KDHPDYKFPPR [SOX10_Y171_Q174P_YF]
SH2 binding enrichment (SHP2-C SH2): 0.783 | SH2 binding enrichment (c-Src SH2): 0.553 | SH2 binding enrichment (Grb2 SH2): 1 | phosphorylation enrichment (AncSZ): 0.883 | phosphorylation enrichment (EPHB2): 0.444 | phosphorylation enrichment (EPHB1): 0.387 | phosphorylation enrichment (FGFR3): 0.762 | phosphorylation enrichment (Jak2): 0.564 | phosphorylation enrichment (MERTK): 0.393 | phosphorylation enrichment (c-Abl (mouse)): 0.52 | phosphorylation enrichment (Fes): 0.685 | phosphorylation enrichment (FGFR1): 0.656 | phosphorylation enrichment (Fyn): 0.415 | phosphorylation enrichment (c-Src): 0.434 | phosphorylation enrichment (Hck): 0.382 | phosphorylation enrichment (Fer (mouse)): 0.376

HDEPTYARSSK [PEAK1_Y616]
SH2 binding enrichment (SHP2-C SH2): 0.819 | SH2 binding enrichment (c-Src SH2): 0.576 | SH2 binding enrichment (Grb2 SH2): 0.92 | phosphorylation enrichment (AncSZ): 0.785 | phosphorylation enrichment (EPHB2): 0.321 | phosphorylation enrichment (EPHB1): 0.478 | phosphorylation enrichment (FGFR3): 0.575 | phosphorylation enrichment (Jak2): 1.01 | phosphorylation enrichment (MERTK): 0.679 | phosphorylation enrichment (c-Abl (mouse)): 0.864 | phosphorylation enrichment (Fes): 1.03 | phosphorylation enrichment (FGFR1): 0.389 | phosphorylation enrichment (Fyn): 0.519 | phosphorylation enrichment (c-Src): 1.29 | phosphorylation enrichment (Hck): 0.918 | phosphorylation enrichment (Fer (mouse)): 0.57

THLARYSDELR [APOA1_Y190_P189R]
SH2 binding enrichment (SHP2-C SH2): 0.622 | SH2 binding enrichment (c-Src SH2): 0.554 | SH2 binding enrichment (Grb2 SH2): 0.96 | phosphorylation enrichment (AncSZ): 0.653 | phosphorylation enrichment (EPHB2): 0.412 | phosphorylation enrichment (EPHB1): 0.32 | phosphorylation enrichment (FGFR3): 0.449 | phosphorylation enrichment (Jak2): 0.543 | phosphorylation enrichment (MERTK): 0.494 | phosphorylation enrichment (c-Abl (mouse)): 0.405 | phosphorylation enrichment (Fes): 0.645 | phosphorylation enrichment (FGFR1): 0.437 | phosphorylation enrichment (Fyn): 0.539 | phosphorylation enrichment (c-Src): 0.397 | phosphorylation enrichment (Hck): 0.4 | phosphorylation enrichment (Fer (mouse)): 0.616

QRIFQYIQSRF [DYRK1B_Y273_YF]
SH2 binding enrichment (SHP2-C SH2): 1.17 | SH2 binding enrichment (c-Src SH2): 0.9 | SH2 binding enrichment (Grb2 SH2): 1.15 | phosphorylation enrichment (AncSZ): 1.09 | phosphorylation enrichment (EPHB2): 0.356 | phosphorylation enrichment (EPHB1): 0.707 | phosphorylation enrichment (FGFR3): 0.619 | phosphorylation enrichment (Jak2): 1.58 | phosphorylation enrichment (MERTK): 0.728 | phosphorylation enrichment (c-Abl (mouse)): 0.583 | phosphorylation enrichment (Fes): 1.45 | phosphorylation enrichment (FGFR1): 0.416 | phosphorylation enrichment (Fyn): 0.502 | phosphorylation enrichment (c-Src): 0.557 | phosphorylation enrichment (Hck): 0.572 | phosphorylation enrichment (Fer (mouse)): 0.693
